Test results published in the supplement of paper PMC9170038.

System: MS2 coat protein
Experiment: apparent KD of MS2 coat protein; designed switch direction (-1 OFF switch, 1 ON switch): -1; higher = weaker reporter binding
In short: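 Designed RNA switches with common flanks were made on Illumina chips by stalled E. coli RNA polymerase. Titration with SNAP-549-labelled MS2 coat protein doubled from 0.7 or 1.5 nM up to 3 µM. Apparent KD is each design's median over clusters after curve-fitting normalised fluorescence.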

[1] = input ligand: microRNA oligo, concentration not stated
[2] = Eterna round: R95, input ligand: FMN 200 uM
[3] = Eterna round: R95, input ligand: microRNA oligo, concentration not stated
[4] = Eterna round: R95, input ligand: none

Sequence | apparent KD of MS2 coat protein [1] [nM] | apparent KD of MS2 coat protein (input ligand: FMN 200 uM) [nM] | apparent KD of MS2 coat protein (input ligand: none) [nM] | apparent KD of MS2 coat protein [2] [nM] | apparent KD of MS2 coat protein [3] [nM] | apparent KD of MS2 coat protein [4] [nM]
AGCUGUGGCCGAGGAUAUCACGAACCAUGGAAAACCAUGGAACUCAAACAUGAGGAUCACCCAUGUGAGAAGGCGGUCUCAGCA [Eli eng2 - 018] (Eterna round: R96, puzzle: Exclusion NG 2) | 15.2 |  |  |  |  | 
AGCUGUGGCCGAGGAUAUCUAAUAGUCCCAACCGAAAUAUAAUCGGACAUGAGGAUCACCCAUGUAGAGAAGGCGGUCUCAGCA [Eli eng2 - 069] (Eterna round: R96, puzzle: Exclusion NG 2) | 102 | 286 | 113 |  |  | 
AGCUGUGGCCGAGGAUAUCUGACUUCAAUAACCGAAAUAUAAUCGGACAUGAGGAUCACCCAUGUAGAGAAGGCGGUCUCAGCA [Eli eng2 - 083] (Eterna round: R96, puzzle: Exclusion NG 2) | 12.5 |  |  |  |  | 
AGCUGUGGCCGAGGAUAUCUGUCUCAUAAAACCGAAAUAUAAUCGGACAUGAGGAUCACCCAUGUAGAGAAGGCGGUCUCAGCA [Eli eng2 - 096] (Eterna round: R96, puzzle: Exclusion NG 2) | 15.8 |  |  |  |  | 
AGCUGUGGCCGAGGAUAUGACAUGAGGAUCACCCAUGUACCAGAUUAGGCCUGGUAACAGGCUCAUCAGAAGGCGGUCUCAGCA [Eli eng2 - 016] (Eterna round: R96, puzzle: Exclusion NG 2) | 10.7 | 13.5 | 14.8 |  |  | 
AGCUUUGCUGCUCGUCCCAACAUGAGGAUCACCCAUGUUCUUAUGAAACCAUCUAGCCUAGAUGGGUCUUGCCAAAG [Eternabot (Original) Solution 47] (Eterna round: R97, puzzle: Sensor, turn-off variant 1) |  | 27.1 | 29.1 |  |  | 
AGCUUUUUGCUCGUCUUAUACAUGAGGAUCACCCAUGUAUUGGACCACAUCGAUAGAUGUGGGCCAAGAAGCAUGGG [Omdei Mir OFFv1 C2] (Eterna round: R97, puzzle: Sensor, turn-off variant 1) |  | 133 | 176 |  |  | 
AGGAAACAUGAGGAUCACCCAUGUGAGGAUAUGAAAAAGAAAAGAAAAGAAAGAAGAAUCAGAAGGCACAAAGG [Mat - Mod of Hog D1] (puzzle: Exclusion 1) |  |  |  | 52.9 | 32 | 45.9
AGGAAGCAAGGAUAUACGAGGAGAAGGUGGAGAGUUAAAGGACAUGAGGAUCACCCAUGUAGAAGGUGCGAGAA [JR_Exclu2_Sub045] (puzzle: Exclusion 2) |  |  |  |  | 52.2 | 
AGGAGCAGAGGGAGAUCCAACAUGAGGAUCACCCAUGUCUCAUAAGCUUUUUGCUCAUCUUAUUGUACCUUGGUGCA [Mat - Sensor v3 - turn-off var 1 - JL Mod - D27] (puzzle: Sensor v3, turn-off variant 1) |  |  |  | 29.2 | 12.5 | 22.3
AGGCUGUCAGGAUAUCUGCGCCGCUGUACGCGGCGUUAUAAAGAGAAGGGACAUGAGGAUCACCCAUGUCCUCA [EX4 B.14] (Eterna round: R97, puzzle: Exclusion 4) |  | 109 | 19.5 |  |  | 
AGGGAGUGAGGAUAUACGAAAUAAAAAGAAGGAAAAAAAGAGUAGAAGGCACAUGAGGAUCACCCAUGUGAGAA [milkweed 12] (Eterna round: R96, puzzle: Exclusion 4) | 16.9 |  |  |  |  | 
AGGGAUAAAGGAUAUACAUGAGGAUCACCCAUGUUGAGGAAGGUUAGAUGAGGAGUAAGUAGAAGGUUAGACGA [JR_Exclu3_Sub088] (puzzle: Exclusion 3) |  |  |  | 45.7 | 40.7 | 61.3
AGGUCACAUGAGGAUCACCCAUGUGAGGAUAUAGACUCAAGAGCUUCGGCUCUCAAGUCUAGAAGGCGCUAUGA [EX1 #50] (Eterna round: R97, puzzle: Exclusion 1) |  | 26.5 | 28.5 |  |  | 
AGGUGCUUCUGGAAACAUGAGGAUCACCCAUGUUGAGUUAGCGAGGAUAUCGGUAACCAUUGUUAUGAGAAGGCGCAAACCAGA [Ex NG3 #37] (Eterna round: R96, puzzle: Exclusion NG 3) | 11.4 | 19.9 | 20.2 |  |  | 
AGGUGUAGAGGAUAUCUAUCCUCGCACAUGAGGAUCACCCAUGUCCUGGUCACCAAGGACGGAGAAGGCUACACCA [Omei Ex5 D20] (Eterna round: R97, puzzle: Exclusion 5) |  | 427 | 773 |  |  | 

Sequence | apparent KD of MS2 coat protein [1] [nM] | apparent KD of MS2 coat protein (input ligand: FMN 200 uM) [nM] | apparent KD of MS2 coat protein (input ligand: none) [nM] | apparent KD of MS2 coat protein [2] [nM] | apparent KD of MS2 coat protein [3] [nM] | apparent KD of MS2 coat protein [4] [nM]
AGUAACAGAGGAUAUACUAUUUUAUGUAUUUAUUAUUUUGAACAUGAGGAUCACCCAUGUAGAAGGCUGAAUAA [JMF 89] (puzzle: Exclusion 2) |  |  |  |  | 23.3 | 
AGUAACAGAGGAUAUACUAUUUUAUGUGUUUAUUGUUUUAAACAUGAGGAUCACCCAUGUAGAAGGCUGAAUAA [JMF 86] (puzzle: Exclusion 2) |  |  |  |  | 28.4 | 
AGUAACAGAGGAUAUACUAUUUUAUGUGUUUGUUGUUUUGAACAUGAGGAUCACCCAUGUAGAAGGCUGAAUAA [JMF 96] (puzzle: Exclusion 2) |  |  |  |  | 24.1 | 
AGUAACAGAGGAUAUACUGUUUUAUGUGUUUGUUAUUUUAAACAUGAGGAUCACCCAUGUAGAAGGCUGAAUGA [JMF 99] (puzzle: Exclusion 2) |  |  |  |  | 24.7 | 
AGUAACCGUCACGAAAGUGAUGGUUACACAGGCAAAUGUACAUGAGGAUCACCCAUGUCCUCAAUUGCUCGUCUUAU [Sensor 3 - 53] (puzzle: Sensor v3, turn-off variant 2) |  |  |  | 115 | 181 | 120
AGUAACUAUCACGAAAGUGAUAGUUACACAAGCAGUGAAACAUGAGGAUCACCCAUGUCCUCAUUUGCUCGUCUUAU [Sensor 3 - 25] (puzzle: Sensor v3, turn-off variant 2) |  |  |  | 53.1 | 390 | 52.2
AGUACAAACACGAAAGUGUUUGUACAAUAAGCUUGUGGAACAUGAGGAUCACCCAUGUCCUCAUAAGCUCGUCUUAU [Mat - Sensor v3 - Turn-off var 2 - D29] (puzzle: Sensor v3, turn-off variant 2) |  |  |  | 15.7 | 87.1 | 14.5
AGUACUAACACGAAAGUGUUAGUACAAUAAGCUUGUGAAACAUGAGGAUCACCCAUGUCCUCGUAAGCUCGUCUUAU [salish99_TOv2_r3_048] (puzzle: Sensor v3, turn-off variant 2) |  |  |  | 40 | 620 | 37.7
AGUACUAACACGAAAGUGUUAGUACAAUAAGCUUGUGGUACAUGAGGAUCACCCAUGUCCUCAUAAGCUCGUCUUAU [JL-sv3-2.13 mat747 mod] (puzzle: Sensor v3, turn-off variant 2) |  |  |  | 22.5 | 62.2 | 20.7
AGUACUAACACGAGAGUGUUAGUACUAUAAGCUUGUGUUACAUGAGGAUCACCCAUGUCCUCAUAAGCUCGUCUUAG [Mat - Sensor v3 - Turn-off var 2 - D67] (puzzle: Sensor v3, turn-off variant 2) |  |  |  | 39.3 | 99 | 44.6
AGUACUAACACGAGUGUGUUAGUACAAUAAGCUUGUGAAACAUGAGGAUCACCCAUGUCCUCAUAAGCUCGUCUUAU [salish99_TOv2_r3_073] (puzzle: Sensor v3, turn-off variant 2) |  |  |  | 17.8 | 516 | 15.1
AGUACUAACACGCUAGUGUUAGUACAAUAAGCUUGUGAAACAUGAGGAUCACCCAUGUCCUCAUAAGCUCGUCUUAU [salish99_TOv2_r3_058] (puzzle: Sensor v3, turn-off variant 2) |  |  |  | 16.4 | 612 | 16.1
AGUACUAACACGGAAGUGUUAGUACUAUAAGCUUGUGUUACAUGAGGAUCACCCAUGUCCUCAUAAGCUCGUCUUAA [Mat - Sensor v3 - Turn-off var 2 - D70] (puzzle: Sensor v3, turn-off variant 2) |  |  |  | 35.1 | 127 | 36.4
AGUACUAACACGGCAGUGUUAGUACAAUAAGCUUGUGAAACAUGAGGAUCACCCAUGUCCUCAUAAGCUCGUCUUAU [salish99_TOv2_r3_065] (puzzle: Sensor v3, turn-off variant 2) |  |  |  | 18.6 | 423 | 15.4
AGUACUAACACGGCUGUGUUAGUACAAUAAGCUUGUGAAACAUGAGGAUCACCCAUGUCCUCAUAAGCUCGUCUUAU [salish99_TOv2_r3_078] (puzzle: Sensor v3, turn-off variant 2) |  |  |  | 18 | 580 | 15.6
